Test results: patent US20190389910A1 (ORUM THERAPEUTICS, published 2019)

Key:
[1] = biological target: heparan sulfate proteoglycan (HSPG) expressed on HeLa cells; assay: cell-based or functional assay
[2] = biological target: T1, EpCAM (epithelial cell adhesion molecule) expressed on the cell surface of human tumor cells (human, UniProt P16422 24-314); assay: flow cytometry on HCT116 and SW480 cells; 100 nM antibody with 300 IU/mL heparin, Alexa488 anti-human Fc
T1 construct: whole, on cells; also called cell surface EpCAM; EpCAM receptor
T1 sequence (looked up): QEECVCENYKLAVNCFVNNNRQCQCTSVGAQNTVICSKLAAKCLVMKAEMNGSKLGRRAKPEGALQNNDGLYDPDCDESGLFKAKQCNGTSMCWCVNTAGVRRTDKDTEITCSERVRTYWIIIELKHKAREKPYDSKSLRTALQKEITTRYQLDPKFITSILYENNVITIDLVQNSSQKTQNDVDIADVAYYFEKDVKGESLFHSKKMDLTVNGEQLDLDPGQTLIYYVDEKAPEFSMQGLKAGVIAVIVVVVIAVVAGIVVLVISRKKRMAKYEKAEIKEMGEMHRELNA
Experimental: Cell surface-binding levels of the indicated CTs, coincubated at 100 nM with 300 IU/mL heparin for 1 h at 4° C. with the indicated cells before analysis (lower panels). An isotype control is used as a negative control.
Then, each antibody was reacted with antibodies specific for human Fc to which Alexa488 (green fluorescence) was linked, at 4° C. for 30 min. After washing with PBS, the cells were analyzed by flow cytometry.

B1: CT05 (antibody, V domains shown)
VH: EVQLVESGGGLVQPGGSLRLSCAASGYTFTSYVMHWVRQAPGKGLEWVSAINPYNDGNYYADSVKGRFTISRDNSRKTLYLQMNSLRAEDTAVYYCARGAYKRGYAMDYWGQGTTVTVSS
VL: DIQMTQSPSSLSASVGDRVTITCKSSQSLLNSRDGKNYLAWYQQKPGKAPKLLIYDASNLETGVPSRFSGSGSGTDFTFTISSLQPEDIATYFCQQYWYWMYTFGGGTKVEIKR
notes: Intact IgG without a cyclic peptide; also called CT05 VL variant
fluorescence intensity of internalized antibody relative to TMab4-WYW (confocal microscopy, HeLa cells, 1 µM, 6 h) [1]: 17.3%
binding result [2]: no binding (tested: 100 nM)
